According to patent CN113444180A (SHANGHAI SINOBAY BIO TECH CO LTD, dated 2021):
Values belong to the binder of their own block, whether it stands above or below them.

Assays:
AXL on CHO-AXL细胞 [1] = biological target: T1, AXL on CHO-AXL细胞 (human, UniProt P30530 26-894); assay: flow cytometry on CHO-AXL cells, pH6.0 against pH7.4
T1 construct: whole, on cells; the cell line itself is only called CHO-AXL
T1 sequence (looked up): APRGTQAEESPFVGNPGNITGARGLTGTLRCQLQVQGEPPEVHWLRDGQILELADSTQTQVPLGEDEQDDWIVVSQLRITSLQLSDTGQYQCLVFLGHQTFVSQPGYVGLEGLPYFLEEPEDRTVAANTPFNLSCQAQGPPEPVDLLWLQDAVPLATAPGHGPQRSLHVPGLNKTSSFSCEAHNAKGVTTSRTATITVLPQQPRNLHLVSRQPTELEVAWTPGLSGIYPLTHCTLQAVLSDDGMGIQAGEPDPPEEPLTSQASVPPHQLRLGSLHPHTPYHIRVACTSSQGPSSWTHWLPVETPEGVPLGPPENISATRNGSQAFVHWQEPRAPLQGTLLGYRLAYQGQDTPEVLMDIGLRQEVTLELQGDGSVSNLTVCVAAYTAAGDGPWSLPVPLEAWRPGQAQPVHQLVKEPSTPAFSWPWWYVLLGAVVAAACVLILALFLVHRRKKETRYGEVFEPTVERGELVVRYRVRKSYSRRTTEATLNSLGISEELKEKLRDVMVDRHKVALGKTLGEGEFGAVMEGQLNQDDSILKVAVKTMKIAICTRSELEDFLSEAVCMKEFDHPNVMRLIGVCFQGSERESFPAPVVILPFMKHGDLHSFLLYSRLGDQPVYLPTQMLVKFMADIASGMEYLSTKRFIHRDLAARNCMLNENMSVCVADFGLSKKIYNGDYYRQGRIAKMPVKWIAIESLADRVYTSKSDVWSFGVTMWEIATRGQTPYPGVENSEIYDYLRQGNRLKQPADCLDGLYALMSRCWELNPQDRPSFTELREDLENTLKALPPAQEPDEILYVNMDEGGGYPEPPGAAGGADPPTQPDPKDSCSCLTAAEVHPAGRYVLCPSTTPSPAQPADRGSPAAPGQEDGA

AXL on CHO-AXL细胞 [2] = biological target: T1, AXL on CHO-AXL细胞; assay: flow cytometry on CHO-AXL cells, acidic condition pH6.0, reference CCT301-38

平均荧光强度 (MFI), acidic condition over neutral condition (AXL on CHO-AXL细胞 [1]): ~1.5 倍 (fold)
平均荧光强度 (MFI), fold over positive control CCT301-38 (AXL on CHO-AXL细胞 [2]): ~4 倍 (fold)
B1: Hu001-11抗体 (full-length human IgG1 kappa) (antibody, V domains shown)
VH: QVQLLESGGGVVQPGRSLRLSCAASGFTFSSYGMHWVRQAPGKGLEWVAVISYDGSNKYYADSVKGRFTISRDNSKNTLYLQMNSLRAEDTAVYYCAKYGSSGPYWYFDLWGQGTLVTVSA
VL: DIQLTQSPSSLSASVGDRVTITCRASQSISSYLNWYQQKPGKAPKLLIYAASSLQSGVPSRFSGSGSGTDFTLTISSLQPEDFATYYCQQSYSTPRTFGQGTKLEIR

平均荧光强度 (MFI), acidic condition over neutral condition (AXL on CHO-AXL细胞 [1]): ~1.5 倍 (fold)
平均荧光强度 (MFI), fold over positive control CCT301-38 (AXL on CHO-AXL细胞 [2]): ~4 倍 (fold)
B2: Hu001-5抗体 (full-length human IgG1 kappa) (antibody, V domains shown)
VH: QVQLLESGGGVVQPGRSLRLSCAASGFTFSSYGMHWVRQAPGKGLEWVAVISYDGSNKYYADSVKGRFTISRDNSKNTLYLQMNSLRAEDTAVYYCAKDQVLAPVGGGLFDYWGQGTLVTVSA
VL: DIQLTQSPSSLSASVGDRVTITCRASQSISTYLNWYQQKPGKAPESLIFAASSLASGVPSRFSGSGSGTDFTLTISSLQPEDFATYYCQQSYSTPRTFGPGTKVEIK
